Measured values published in patent US20090010961A1.

What was measured:
Assay in all cases: cell-based or functional assay
[1] = molecular target: E protein of wild-type DEN-1 16007 virus (dengue-1 virus, strain 16007) (UniProt P27909)
[2] = molecular target: E protein of wild-type DEN-3 16562 virus (dengue-3 virus, strain 16562) (UniProt P27915)
[3] = molecular target: E protein of wild-type DEN-4 1036 virus (dengue-4 virus, strain 1036) (UniProt P09866)

In the case of “monoclonal antibody 3H5 (specific for DEN-2 E protein)”, the Reciprocal serum dilution-plaque reduction neutralization titers (50% endpoint) (reciprocal dilution) [1] was 20, the Reciprocal serum dilution-plaque reduction neutralization titers (50% endpoint) (reciprocal dilution) [2] was 40 and the Reciprocal serum dilution-plaque reduction neutralization titers (50% endpoint) (reciprocal dilution) [3] was under 20.
